Here are results for 2 molecules from PMC8725159, “CryoEM analysis of small plant biocatalysts at sub-2 Å resolution” (Acta Crystallographica. Section D, Structural Biology, 2022).

Where “and” joins values, the source holds several entries; their conditions need not be identical. Equal entries are not always repeated.

Data set [1] concerns the target borneol dehydrogenase 1 from Salvia rosmarinus (SrBDH1) (Salvia rosmarinus). The data set can be described thus: SEC-MALS; Superdex 200 Increase 10/300 column, 18°C, miniDAWN TREOS detector with refractive-index detector. (In general: SEC sorts molecules by how far they enter the pores of the column.)
The target is the same in data set [2]. The data set can be described thus: cryo-EM structure; single-particle cryoEM, 1 mg/ml on UltrAuFoil R1.2/1.3 grids, Titan Krios 300 kV, Falcon 3EC, D2 symmetry imposed.
Data set [3] concerns the molecule itself. As to the kind of experiment: SEC-MALS; Superdex 200 Increase 10/300 column, 18°C, miniDAWN TREOS detector with refractive-index detector.

For the molecule “borneol dehydrogenase 1 from Salvia rosmarinus (SrBDH1) (enzyme)”, the stoichiometry N in data set [1] and in data set [2] was 4 in each case.

B1: borneol dehydrogenase 2 from Salvia officinalis (SoBDH2) (enzyme)
chain: MATGAANVESPQSLPLRLLGRVALVTGGSSGIGESIVLLFRKHGAKVCIADVQDNQGQRLCETLGGSSDIAFCHCDVTIEDDVKRAVDFTVDKFGTLDIMVNNAGVSGPPCPDIRDFELSAFDRVFDINVRGVFIGMKHAARIMIPAKKGSIISISSVASTMGGLGPHAYTGSKHAVLGLTKNVAAELGKHGIRVNCVSPYAVATSLALAHLPEAERTEDTWDDFRRFVADNANLQGVELTMEDVANAVVFLASDEARYVSGMNLMVDGGFTSTNHALQVFRP
notes: borneol-type dehydrogenase SoBDH2 from Salvia officinalis, GenBank MT525099; synthetic gene codon-optimized for E. coli; theoretical molecular mass with the His6 tag 32.2 kDa; Homotetramer with D2 symmetry in cryoEM; also called Salvia officinialis borneol dehydrogenase 2; source: E. coli BL21-RIL, purified (Ni-NTA, SEC); not shown: His6, N-terminal, kept
Turning to B1, the stoichiometry N (as a rule, the number of molecules, sites or subunits per partner or assembly) in data set [3] was 8 and 4.
